Measured values as given in patent US8669347B2, “Truncated variant of the mammalian target for rapamycin (MTOR) protein” (UCL Business PLC, priority 2007, dated 2014).

Key:
Hek293 cells [1] = assay: Colony formation in agarose (oncogenic potential); assay type: cell-based, human; settings: stably overexpressing cells, 14 days, MTT stain, compared with mTORα and control cells
Description: HEK293 cells stably overexpressing mTORβ, mTORα or EGFP were plated in a thin layer of agarose in culture medium. After 14 days, colonies were stained using MTT (A). Colonies were counted using Quantity One Software (Bio-Rad) and folds were plotted (B). Data are means±SE of 4 experiments. * P value≦0.01.
To further investigate the effect of mTORβ expression on cell oncogenic potential, Hek293 cells stably overexpressing mTORβ, mTORα or EGFP were plated in a thin layer of agarose in culture medium. After 14 days, colonies were stained using MTT (see FIG. 14A). Colonies were counted using quantity 1 software (Bio-Rad) and folds were plotted (see FIG. 14B).

Hek293 stable cell lines [2] = assay: Cell proliferation assay (Resazurin based) of Hek293 stable cell lines; design: species or system human; settings: six independent studies
Description: (§1) Hek293 stable cell lines, over-expressing mTORβ wt, mTORα wt or EGFP were seeded into a 96 well plate at various densities (250, 500, 1000 and 2000 cells per well) and grown under standard conditions for 7 days. Cell numbers were than measured in each well by a Resosurin based assay. Normalized growth curves for each cell line were calculated using data from six independent experiments (A). Western blot analysis of total cell lysates of stable cell lines with antibodies to c-myc and its transcription targets (B). The level of proteins was densitometrically measured, actin normalized and folds were calculated against EGFP expressing stable cell line (C).
(§2) HEK293 stable cell lines, overexpressing mTORβ wt, mTORβ kinase-dead or EGFP were seeded into 96 well plate at various densities (1000, 2000, 4000 and 8000 cells per well) and grown under standard conditions for 5 days. Cell numbers were then measured in each well by Resazurin based assay. Normalized growth curves for each cell line were calculated using data from six independent experiments (A). Western blot analysis of total cell lysates of stable cell lines with antibodies to c-myc and its transcription targets. The level of proteins was densitometrically measured, actin normalized and folds were calculated against EGFP expressing stable cell line (B). […]

Raptor, Rictor, and GβL = assay: Co-immunoprecipitation with mTOR binding partners in HEK293 cells; settings: anti-FLAG immunoprecipitation from transfected HEK293 cells
Description: HEK293 cells were transfected with pcDNA3.1-mTORβ-FLAG and pRK-Raptor-HA or pcDNA3.1-mTORβ-FLAG and pRK-Rictor-Myc or pcDNA3.1-mTORβ-FLAG and pcRK-GβL. The supernatants of lysed cells were immunoprecipitated with anti-FLAG antibody or control nonspecific antibody. The immune complexes or total cell lysates from transfected cells (15 μg) were resolved by SDS-PAGE and probed in Western blotting with anti-HA, anti-Rictor, or anti-GβL antibodies.
HEK293 cells were washed with ice-cold phosphate-buffered saline (PBS) and extracted with the lysis buffer containing 50 mM HEPES (pH 7.5), 150 mM NaCl, 1% (v/v) Triton X100, 2 mM EDTA, 50 mM sodium fluoride, 10 mM sodium pyrophosphate, 1 mM sodium orthovanadate, and a mixture of protease inhibitors (Roche Applied Science). Whole-cell extracts were centrifuged at 10,000×g for 30 minutes at 4° C. Endogenous or transiently expressed proteins were immunoprecipitated with corresponding antibodies immobilized on protein A-Sepharose beads (Amersham Biosciences) for 3 hours at 4° C. The immune complexes were then washed once with Tris-buffered saline containing 0.05% Tween 20 and the Wash Buffer 1 (50 mM HEPES [pH 7.5], 40 mM NaCl, and 2 mM EDTA) with 1% Triton X-100, Wash Buffer 1 with 500 mM LiCl and 0.5% Triton X-100, Wash Buffer 1 with 500 mM LiCl, and Wash Buffer 2 (50 mM HEPES [pH 7.5] and 150 mM NaCl). […]

4E-BP1 = assay: mTOR in vitro kinase assay, 4E-BP1 substrate; assay type: biochemical; settings: FLAG immunoprecipitate from Hek293 cells, recombinant 4E-BP1 substrate, compared with mTORα
Description: (§3) HEK293 cells were transfected with pcDNA3.1 or pcDNA 3.1 mTORβ. One day later, cells were starved for 24 hours and than stimulated with 10% fetal bovine serum for 1 hour. Rapamycin (10 nM) was added 30 minutes before stimulation. Cells were lysed, resolved by SDS-PAGE and immunobloted with the C-terminal anti-mTOR and pS2448 mTOR antibodies. […] Two days later, cells were lysed and immunoprecipitated with anti-FLAG antibody. The immune complexes were used in mTOR in vitro kinase assay with His-4E-BP1 and His-S6K1C as substrates. Kinase reactions were resolved by SDS-PAGE and immunoblotted with phosphospecific antibodies to 4E-BP1 p65 and S6K1 p389. The level of immunoprecipitated FLAG-mTORα and FLAG-mTORβ was measured by Western blotting with anti-FLAG.
(§4) Is mTORβ able to phosphorylate S6K and 4E-BP1, which are the main physiological substrates for mTORα? […] The immune complexes were then used in mTOR kinase reactions, containing cold ATP and recombinant 4E-BP1 or His-S6K1C. The kinase reactions were resolved by SDS-PAGE and immunoblotted with phosphospecific antibodies pT389-S6K1 and pS65-4E-BP1.
(§5) mTOR in vitro kinase assay was performed as published previously (Kim et al. 2002). […] The reactions were stopped by adding 5× sample buffer and resolved by SDS-PAGE and analyzed by immunoblotting.

S6K1 = assay: mTOR in vitro kinase assay, His-S6K1C substrate; assay type: biochemical; settings: FLAG immunoprecipitate from Hek293 cells, compared with mTORα
Description: as §3, §4, §5

Hek293 cells [3] = assay: BrdU pulse-chase cell cycle analysis by FACS; assay type: cell-based, human; settings: overexpressing cells vs mTORα or control (EGFP) cells; BrdU 30 minutes, chased 24 hours
Description: HEK293 cells stably overexpressing mTORβ, mTORα or EGFP were pulse labeled with BrdU for 30 minutes and chased every 2 hours for 24 hours. The incorporation of BrdU was measured by FACS analysis. Duration of G1, S and G2 phases of cell cycle observed for each cell line is presented on graph. SD, p=0.05.
To further investigate the role of mTORβ in the cell cycle, Hek293 cells overexpressing mTORβ, mTORα or EGFP were pulse labeled with BrdU for 30 minutes and chased every 2 hours for 24 hours. Incorporation of BrdU into the cells was measured by FACS analysis. The duration of the G1, S and G2 phases of cell cycle observed for each cell line was determined (see FIG. 12). The duration of S and G2 phases were similar in all three cell groups. However, the duration of the G1 phase was shorter in the mTORβ overexpressing cells than in the mTORα or control cells.

Hek293 stable cell lines [4] = assay: Serum starvation cell survival, Trypan Blue dye exclusion assay; assay type: cell-based, human; settings: stable overexpressing lines serum starved for 60 hours
Description: Hek293 stable cell lines, overexpressing mTORβ wt, mTORα wt, mTORβ kinase dead or EGFP were serum starved for 60 hours. Cell survival was assessed by the Trypan Blue dye exclusion assay. Data are means±SE of 5 experiments. * P value≦0.01.
The effects of mTORβ in serum starved cells were also assessed. Hek293 stable cell lines, overexpressing mTORβ wt, mTORα wt, mTORβ kinase dead or EGFP were serum starved for 60 hours. Cell survival was assessed by the Trypan Blue dye exclusion assay.

c-Myc = assay: Western blot of c-Myc protein level in transfected HEK293 cells; assay type: cell-based, human; settings: HEK293 transiently transfected, lysed two days after transfection
Description: as §1, §2

Hek293 cells [5] = assay: Recovery from Sorbitol-induced stress; assay type: cell-based, human; settings: overexpressing cells, compared with mTORα overexpressing cells

B1: mTORβ: splice form of mTOR: fusion of amino acids 1 to 23 and 1867 to 2549 of mTORα, 706 amino acids (SEQ ID NO: 2) (protein, listed as Homo sapiens)
chain: MLGTGPAAATTAATTSSNVSVLQKKVTEDLSKTLLMYTVPAVQGFFRSISLSRGNNLQDTLRVLTLWFDYGHWPDVNEALVEGVKAIQIDTWLQVIPQLIARIDTPRPLVGRLIHQLLTDIGRYHPQALIYPLTVASKSTTTARHNAANKILKNMCEHSNTLVQQAMMVSEELIRVAILWHEMWHEGLEEASRLYFGERNVKGMFEVLEPLHAMMERGPQTLKETSFNQAYGRDLMEAQEWCRKYMKSGNVKDLTQAWDLYYHVFRRISKQLPQLTSLELQYVSPKLLMCRDLELAVPGTYDPNQPIIRIQSIAPSLQVITSKQRPRKLTLMGSNGHEFVFLLKGHEDLRQDERVMQLFGLVNTLLANDPTSLRKNLSIQRYAVIPLSTNSGLIGWVPHCDTLHALIRDYREKKKILLNIEHRIMLRMAPDYDHLTLMQKVEVFEHAVNNTAGDDLAKLLWLKSPSSEVWFDRRTNYTRSLAVMSMVGYILGLGDRHPSNLMLDRLSGKILHIDFGDCFEVAMTREKFPEKIPFRLTRMLTNAMEVTGLDGNYRITCHTVMEVLREHKDSVMAVLEAFVYDPLLNWRLMDTNTKGNKRSRTRTDSYSAGQSVEILDGVELGEPAHKKTGTTVPESIHSFIGDGLVKPEALNKKAIQIINRVRDKLTGRDFSHDDTLDVPTQVELLIKQATSHENLCQCYIGWCPFW
cell oncogenic potential (colonies in agarose) (Hek293 cells [1]): increase in cell oncogenic potential
proliferation rate in comparison to control (EGFP) cells (Hek293 stable cell lines [2]; overexpressing stable lines grown 5 days): approximately 1.6 times faster
proliferation compared to control (EGFP) cells (Hek293 stable cell lines [2]; overexpressing stable lines grown 7 days): proliferate faster
complex formation with exogenously expressed Raptor, Rictor, and GβL (Raptor, Rictor, and GβL): form specific complexes
phosphorylation of 4E-BP1 (pS65) in vitro (4E-BP1): to a lesser extent than mTORα
phosphorylation of S6K1 (pT389) in vitro (S6K1): to a lesser extent than mTORα
duration of the G1 phase (Hek293 cells [3]): shorter
cell survival after serum starvation (Hek293 stable cell lines [4]): protected cells from starvation induced cell death
c-Myc protein level (c-Myc): significant increase
recovery from Sorbitol-induced stress (Hek293 cells [5]): much faster
